Results from patent publication US6060451A, “Thrombin inhibitors based on the amino acid sequence of hirudin” (The National Research Council of Canada, priority 1995, dated 2000).

What was measured:
[1] = system: activated partial thromboplastin time; assay: Increase in APTT, bolus plus infusion model; format: in vivo, rat; parameters: Infusion Dose needed to cause 2-4 fold increase in APTT: unit not given here; conditions: intravenous bolus followed by infusion
[2] = system: carotid artery thrombosis; assay: Ferric chloride injury-induced thrombosis model in carotid artery; conditions: rat carotid artery, FeCl3 injury; control patency time 19 ± 1 min
Description: Species: Rat, male, Sprague-Dawley.
Animals were laid on a heating pad which was maintained at 37° C. The carotid artery was approached through a midline cervical incision. Carefully blunt dissection was used to expose and isolate the vessel from the carotid sheath. […] The vessel temperature was monitored for 60 minutes after application of FeCl3. […] The site of the experiment was covered with aluminum foil in order to protect the FeCl3 from degradation by light.
All the samples were kept on ice and centrifuged as soon as possible at 2000 Rpm for 10 min., 4° C. The plasma was analyzed in duplicate for activated partial thromboplastin time on a haemostasis analyzer (STAGO ST4™).
From a group of four animals, two arteries were stored at -80° C. for further analysis. The others were observed under a light microscope at 40× (Leica™) for quantification of the occlusion (complete, partial, no occlusion).
In some studies, the animal was receiving the compound by i.v. infusion instead of a bolus. In this case, the jugulars and femoral veins were cannulated with Sylastic tubing (I.D. 0.025IN). This left jugular was used for blood sampling and the right one for the infusion line. The compound was infused 30 minutes before injury and then for an other 30 minutes post-injury. Blood samples were taken at time 0, 30 and 60 minutes for APTT test and thrombin test (1 ml of blood/90 ul of citrated buffer).

[3] = system: arteriovenous shunt occlusion; assay: Antithrombotic activity in the arteriovenous shunt model; conditions: rats, 5 min after intravenous administration

B1: r-Hirudin: recombinant hirudin (HV-2), thrombin inhibitor protein of the leech Hirudo medicinalis (protein)
chain: ITYTDCTESGQNLCLCEGSNVCGKGNKCILGSNGKGNQCVTGEGTPNPESHNNGDFEEIPEEYLQ
[1]
  Bolus Dose needed to cause 2-4 fold increase in APTT: 0.15 mg/kg
  Infusion Dose needed to cause 2-4 fold increase in APTT: 15
[2]
  Dose to double patency time: 1 mg/kg
[3]
  ED15 (dose which causes a prolongation of the time until occlusion of the shunt by 15 min): 1.42 mg/kg
